Experimental data published in the supplement of paper PMC10899765.

Legend:
Details in all cases: 20 nM; 72 h
MCF10A [1] = experiment: percent viability (nuclei count relative to siNT); higher = more viable cells
Method: (§1)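 After 72 h, cells were fixed and stained with Hoechst and anti-fibrillarin, and nucleoli per nucleus were counted with CellProfiler. Values are plate-adjusted percent effect for the one-nucleolus and 5+ nucleoli phenotypes, normalised to siNT (0%) and to the positive controls siNOL11 or siKIF11 (100%), as the mean of biological triplicates. Percent viability is the nuclei count relative to siNT.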

MCF10A [2] = experiment: 5+ nucleoli phenotype percent effect (relative to siNT 0% and siKIF11 100%); higher = more cells with five or more nucleoli
Method: as §1

MCF10A [3] = experiment: one-nucleolus phenotype percent effect (relative to siNT 0% and siNOL11 100%); higher = more cells with one nucleolus (ribosome biogenesis inhibition)
Method: as §1

Sequence | percent viability (MCF10A [1]) [%] | 5+ nucleoli phenotype percent effect (MCF10A [2]) [%] | one-nucleolus phenotype percent effect (MCF10A [3]) [%]
CUCCUGAGCCAUUCUGAGCCUC [hsa-miR-1200] | 58 | -30.8 | 27.4
ACUUCACCUGGUCCACUAGCCGU [hsa-miR-412] | 118 | 26 | -11.5
UUUGUAUGGAUAUGUGUGUGUAU [hsa-miR-3149] | 37.6 | -7.06 | 2.3
GUGGGUUGGGGCGGGCUCUG [hsa-miR-3940-5p] | 52.7 | -4.07 | -5.1
UGAUCUCACCGCUGCCUCCUUC [hsa-miR-4695-3p] | 93.9 | 12.8 | -9.6
AUUCUCUCUGGAUCCCAUGGAU [hsa-miR-4768-5p] | 22.6 | -2.49 | -12.2
ACACCCUCUUUCCCUACCGCC [hsa-miR-6865-3p] | 86.3 | 40.5 | -26
UAAAGAGCCCUGUGGAGACA [hsa-miR-1276] | 41.4 | -20.8 | 24.1
CUGCCUGUUCUUCCACUCCAG [hsa-miR-6514-3p] | 9.75 | -62.1 | 59.9
CUAGUGAGGGACAGAACCAGGAUUC [hsa-miR-921] | 48.8 | -15.6 | 31.9
GAGAGGAACAUGGGCUCAGGACA [hsa-miR-6859-5p] | 75.5 | 41.6 | -24.3
UAUGUAACAUGGUCCACUAACU [hsa-miR-379-3p] | 89.1 | 38.4 | -12
GCUAGUCCUGACUCAGCCAGU [hsa-miR-554] | 67.7 | 10.2 | -12.9
UGUUGUCAUGUUUUUUCCCUAG [hsa-miR-6755-3p] | 26 | 34.6 | -6.42
AUAAAGCUAGAUAACCGAAAGU [hsa-miR-9-3p] | 44.1 | -46.1 | 48.4
UCCAGUACAGGUCUCUCAUUUC [hsa-miR-4712-5p] | 81.3 | -15.1 | 11
CUGAAGCUCAGAGGGCUCUGAU [hsa-miR-127-5p] | 45.5 | -40.5 | 39
UUGGGACAUACUUAUGCUAAA [hsa-miR-1302] | 46.9 | -1.97 | -3.28
AGGCCCUGUCCUCUGCCCCAG [hsa-miR-6775-3p] | 41.3 | 11.1 | 12.8
AGGCCAUCAGCAGUCCAAUGAA [hsa-miR-4529-5p] | 52.1 | 9.36 | 2.62
AACAAUAUCCUGGUGCUGAGUG [hsa-miR-338-5p] | 47.6 | -1.58 | -0.375
ACCAGCGCGUUUUCAGUUUCAU [hsa-miR-4738-5p] | 51.5 | 13.4 | 7.61
UUACGGACCAGCUAAGGGAGGC [hsa-miR-4788] | 43.7 | 9.13 | -0.639
UGGGAGAGCAGGGUAUUGUGGA [hsa-miR-6731-5p] | 6.77 | -22.2 | 43
AGUGGCACAUGUUUGUUGUGAG [hsa-miR-891a-3p] | 32.1 | -11.2 | 35
UGGGGAGCGGCCCCCGGGUGGG [hsa-miR-1343-5p] | 86 | 48.5 | -31.1
UUUCUCUCUCCACUUCCUCAG [hsa-miR-6833-3p] | 28.4 | 22.2 | -1.79
AGGCAAGAUGCUGGCAUAGCU [hsa-miR-31-5p] | 16.8 | -4.74 | 26
AGGUUGCCUGUGAGGUGUUCA [hsa-miR-656-5p] | 17.5 | -1.12 | 10.7
ACUGAGCCUCUCUCUCUCCAG [hsa-miR-6751-3p] | 65.4 | -22.5 | -10.3
